This note sets out measurements from patent US20110239319, “Use of Endonucleases for Inserting Transgenes Into Safe Harbor Loci” (published 2011).

Holding throughout (assay): cell_activity; endogenous locus, 293H
Data set [1] concerns the target T1, QCSH61-H01d (QC-SH6-H01_V2_7E_70R75D) (artificial).
T1 chain: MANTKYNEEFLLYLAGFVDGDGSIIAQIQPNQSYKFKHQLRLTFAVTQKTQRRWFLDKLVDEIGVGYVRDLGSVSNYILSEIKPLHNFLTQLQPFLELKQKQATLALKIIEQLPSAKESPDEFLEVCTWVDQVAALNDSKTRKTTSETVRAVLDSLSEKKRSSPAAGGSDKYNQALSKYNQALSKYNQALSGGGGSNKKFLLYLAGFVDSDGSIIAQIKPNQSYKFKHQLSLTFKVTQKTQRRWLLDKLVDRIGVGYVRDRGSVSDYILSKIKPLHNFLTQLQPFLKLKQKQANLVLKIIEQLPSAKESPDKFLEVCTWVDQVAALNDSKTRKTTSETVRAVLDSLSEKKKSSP
On the procedure:
(§1) Human embryonic kidney 293H cells (Invitrogen) were plated at a density of 1×10⁶ cells per 10 cm dish in complete medium (DMEM supplemented with 2 mM L-glutamine, penicillin (100 UI/ml), streptomycin (100 μg/ml), amphotericin B (Fongizone) (0.25 μg/ml) (Invitrogen-Life Science) and 10% FBS). The next day, cells were transfected with 3 μg of single-chain meganuclease expression vector using Lipofectamine 2000 transfection reagent (Invitrogen) according to the supplier's protocol. After 2 to 6 days of incubation at 37° C., cells were trypsinized and genomic DNA extraction was performed with the DNeasy blood and tissue kit (Qiagen) according to the supplier's protocol.
(§2) Human embryonic kidney 293H cells were transfected with a plasmid expressing a single-chain safe harbor meganuclease. After 2 to 6 days of incubation at 37° C., genomic DNA was isolated and PCR was used to amplify the genomic sequence surrounding the meganuclease target site. Sequences were then analyzed for the presence of insertions or deletions events (InDel) in the cleavage site of each safe harbor target.

For data set [2], the target named is T2, SCOH-SH6-b12-G2_BQY (artificial).
T2 chain: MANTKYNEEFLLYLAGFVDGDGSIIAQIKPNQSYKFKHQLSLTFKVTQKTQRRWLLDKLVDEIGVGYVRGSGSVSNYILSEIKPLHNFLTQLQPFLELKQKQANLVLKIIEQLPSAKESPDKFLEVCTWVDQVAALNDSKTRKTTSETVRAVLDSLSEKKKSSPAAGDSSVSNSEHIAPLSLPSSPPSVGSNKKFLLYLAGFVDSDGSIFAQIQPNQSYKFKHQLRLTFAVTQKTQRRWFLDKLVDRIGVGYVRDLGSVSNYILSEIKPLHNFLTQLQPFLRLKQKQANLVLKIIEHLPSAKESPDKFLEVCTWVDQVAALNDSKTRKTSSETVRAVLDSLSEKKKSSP
On the procedure:
as §1, §2

The target of data set [3] is T3, QCSH61-H01a (SCOH-QCSH6-H01) (artificial).
T3 chain: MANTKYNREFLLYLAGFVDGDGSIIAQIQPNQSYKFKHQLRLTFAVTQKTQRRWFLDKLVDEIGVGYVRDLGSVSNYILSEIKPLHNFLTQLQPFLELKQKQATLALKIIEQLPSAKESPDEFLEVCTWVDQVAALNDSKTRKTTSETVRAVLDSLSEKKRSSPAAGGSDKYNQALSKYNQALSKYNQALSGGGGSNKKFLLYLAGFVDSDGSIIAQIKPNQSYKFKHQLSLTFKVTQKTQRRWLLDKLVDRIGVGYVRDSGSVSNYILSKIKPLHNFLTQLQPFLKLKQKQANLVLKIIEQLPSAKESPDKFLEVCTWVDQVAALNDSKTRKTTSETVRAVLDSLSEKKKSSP
The protocol: as §1, §2

The target of data set [4] is T4, QCSH61-H01b (QC-SH6-H01_7E) (artificial).
T4 chain: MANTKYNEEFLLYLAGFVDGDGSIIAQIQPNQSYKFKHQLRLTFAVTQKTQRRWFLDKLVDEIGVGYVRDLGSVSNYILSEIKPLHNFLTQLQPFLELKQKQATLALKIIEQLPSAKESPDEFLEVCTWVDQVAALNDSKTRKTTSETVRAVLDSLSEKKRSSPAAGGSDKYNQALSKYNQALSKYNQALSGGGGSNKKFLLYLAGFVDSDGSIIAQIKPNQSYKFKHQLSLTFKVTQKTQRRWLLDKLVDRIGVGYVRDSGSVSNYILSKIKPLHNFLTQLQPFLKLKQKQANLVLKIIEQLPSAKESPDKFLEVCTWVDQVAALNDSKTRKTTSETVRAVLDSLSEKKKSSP
On the procedure:
as §1, §2

Data set [5] concerns the target T5, SCOH-SH6-b11-G2.2_BQY (artificial).
T5 chain: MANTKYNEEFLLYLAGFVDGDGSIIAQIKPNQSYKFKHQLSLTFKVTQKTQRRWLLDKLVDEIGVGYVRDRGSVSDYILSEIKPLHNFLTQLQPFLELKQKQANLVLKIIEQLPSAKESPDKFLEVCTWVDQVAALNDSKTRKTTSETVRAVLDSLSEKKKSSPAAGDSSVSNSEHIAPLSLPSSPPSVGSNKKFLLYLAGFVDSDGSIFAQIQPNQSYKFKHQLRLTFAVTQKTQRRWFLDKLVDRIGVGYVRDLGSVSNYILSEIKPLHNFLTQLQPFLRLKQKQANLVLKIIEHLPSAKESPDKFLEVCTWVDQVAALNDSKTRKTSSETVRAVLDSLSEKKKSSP
On the procedure:
as §1, §2

The target of data set [6] is T6, SCOH-SH18-b11-C.2 (artificial).
T6 chain: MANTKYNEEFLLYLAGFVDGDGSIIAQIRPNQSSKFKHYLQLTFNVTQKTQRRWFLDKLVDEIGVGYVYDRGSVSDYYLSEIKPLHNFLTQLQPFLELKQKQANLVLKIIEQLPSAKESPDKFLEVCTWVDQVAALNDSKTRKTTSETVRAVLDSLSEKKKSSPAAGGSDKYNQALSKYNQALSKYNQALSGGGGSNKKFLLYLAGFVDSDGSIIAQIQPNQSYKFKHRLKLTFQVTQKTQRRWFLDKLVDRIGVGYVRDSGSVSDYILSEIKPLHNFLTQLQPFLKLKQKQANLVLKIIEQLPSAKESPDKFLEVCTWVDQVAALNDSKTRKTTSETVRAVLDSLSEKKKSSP
On the procedure:
as §1, §2

The target in data set [7] is T7, SCOH-SH13 (artificial).
T7 chain: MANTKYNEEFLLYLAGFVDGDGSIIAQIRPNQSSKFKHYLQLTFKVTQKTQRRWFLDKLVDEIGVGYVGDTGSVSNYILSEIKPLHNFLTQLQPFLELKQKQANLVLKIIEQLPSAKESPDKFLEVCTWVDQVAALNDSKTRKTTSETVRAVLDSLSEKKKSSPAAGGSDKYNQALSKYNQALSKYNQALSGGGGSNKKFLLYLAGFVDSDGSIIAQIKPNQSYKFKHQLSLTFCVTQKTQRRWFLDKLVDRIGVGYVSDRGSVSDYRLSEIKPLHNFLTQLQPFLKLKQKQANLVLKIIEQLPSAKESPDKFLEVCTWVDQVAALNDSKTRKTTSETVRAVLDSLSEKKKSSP
The protocol:
as §1, §2

The target in data set [8] is T8, SCOH-SH8 (artificial).
T8 chain: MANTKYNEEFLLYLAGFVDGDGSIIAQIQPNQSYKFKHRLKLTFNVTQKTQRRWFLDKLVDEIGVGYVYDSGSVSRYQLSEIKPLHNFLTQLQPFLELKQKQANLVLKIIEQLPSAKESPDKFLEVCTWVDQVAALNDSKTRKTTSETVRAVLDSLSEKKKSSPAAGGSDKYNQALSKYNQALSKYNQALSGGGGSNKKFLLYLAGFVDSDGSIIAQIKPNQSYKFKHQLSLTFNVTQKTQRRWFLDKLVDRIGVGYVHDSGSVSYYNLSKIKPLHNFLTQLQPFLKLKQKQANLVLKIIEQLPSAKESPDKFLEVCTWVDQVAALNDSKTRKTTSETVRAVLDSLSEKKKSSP
The protocol: as §1, §2

B1: SH6 target (dsDNA)
DNA 1: TTAATACCCCGTACCTAATATTGC
DNA 2: GCAATATTAGGTACGGGGTATTAA
B1: the activity came out at 3.5 % InDels in data set [1]; 1 % InDels in data set [2]; 0.6 % InDels in data set [3]; 1.5 % InDels in data set [4]; 3 % InDels in data set [5].

B2: SH18 target (dsDNA)
DNA 1: CTTACCCCACGTACCACAGACTGT
DNA 2: ACAGTCTGTGGTACGTGGGGTAAG
The molecule B2 displayed an activity in data set [6] of 1.2 % InDels.

B3: SH13 target (dsDNA)
DNA 1: ATTACACTCTTTAAGTGATTTTAA
DNA 2: TTAAAATCACTTAAAGAGTGTAAT
The molecule B3 gave an activity in data set [7] of 1.5 % InDels.

B4: SH8 target (dsDNA)
DNA 1: ACAATCTGAGGTAAGTAATACTGA
DNA 2: TCAGTATTACTTACCTCAGATTGT
In data set [8], B4 displayed an activity of 0.5 % InDels.
